Literature values as cited in patent US9782344B2, “Stable glucagon peptide formulations” (ZP Opco, Inc., priority 2013, dated 2017).
Where two headings read alike, the source gives them in different places.

Substance: glucagon
- behaviour in aqueous solution (pH below 3 or above 9): readily dissolved
- behaviour in aqueous solution (pH between 4 and 8): precipitates readily
